Results published in patent US20200369766A1 (LEIDOS, published 2020).
Where “and” joins values, the source holds several entries; their conditions need not be identical. Equal entries are not always repeated.

T1: human LAG3 expressed on Jurkat T cell line (human, UniProt P18627 23-525)
T1 sequence (looked up): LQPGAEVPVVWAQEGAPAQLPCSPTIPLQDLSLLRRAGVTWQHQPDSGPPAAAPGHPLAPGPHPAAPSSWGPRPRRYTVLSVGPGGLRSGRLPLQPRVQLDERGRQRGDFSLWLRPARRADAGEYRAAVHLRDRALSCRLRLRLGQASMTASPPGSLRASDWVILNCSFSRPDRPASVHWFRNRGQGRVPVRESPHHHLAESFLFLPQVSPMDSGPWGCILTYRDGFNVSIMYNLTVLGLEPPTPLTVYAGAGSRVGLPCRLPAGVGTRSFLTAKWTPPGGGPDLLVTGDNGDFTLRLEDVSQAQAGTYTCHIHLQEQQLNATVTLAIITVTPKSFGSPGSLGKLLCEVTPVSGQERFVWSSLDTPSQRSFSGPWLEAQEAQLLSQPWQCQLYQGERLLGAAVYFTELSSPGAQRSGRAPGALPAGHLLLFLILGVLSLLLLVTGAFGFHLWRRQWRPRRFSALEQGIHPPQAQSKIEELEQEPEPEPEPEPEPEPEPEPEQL


Experiments:
Tag1-LAG3 [1] = test: HTRF LAG3/MHC-II; peptide log M -8.81648
Tag1-LAG3 [2] = test: HTRF LAG3/MHC-II; peptide log M -9.41854
Tag1-LAG3 [3] = test: HTRF LAG3/MHC-II; peptide log M -8.21442
Tag1-LAG3 [4] = test: HTRF LAG3/MHC-II; peptide log M -10.6227
Tag1-LAG3 [5] = test: HTRF LAG3/MHC-II; peptide log M -7.0103
Tag1-LAG3 [6] = test: HTRF LAG3/MHC-II; peptide log M -4
Tag1-LAG3 [7] = test: HTRF LAG3/MHC-II; peptide log M -10.0206
Tag1-LAG3 [8] = test: HTRF LAG3/MHC-II; peptide log M -4.60206
Tag1-LAG3 [9] = test: HTRF LAG3/MHC-II; peptide log M -6.40824
Tag1-LAG3 [10] = test: HTRF LAG3/MHC-II; peptide log M -7.61236
Tag1-LAG3 [11] = test: HTRF LAG3/MHC-II; peptide log M -5.80618
Tag1-LAG3 [12] = test: HTRF LAG3/MHC-II; peptide log M -5.20412
[13] = molecular target: T1, human LAG3 expressed on Jurkat T cell …; test: cell-based or functional assay

HTRF ratio (Tag1-LAG3 [1])	HTRF ratio (Tag1-LAG3 [2])	HTRF ratio (Tag1-LAG3 [3])	HTRF ratio (Tag1-LAG3 [4])	HTRF ratio (Tag1-LAG3 [5])	HTRF ratio (Tag1-LAG3 [6])	HTRF ratio (Tag1-LAG3 [7])	HTRF ratio (Tag1-LAG3 [8])	HTRF ratio (Tag1-LAG3 [9])	HTRF ratio (Tag1-LAG3 [10])	HTRF ratio (Tag1-LAG3 [11])	HTRF ratio (Tag1-LAG3 [12])	fold inhibition (fold increase in luciferase activity, RLUs at 100 µM against 0.64 µM) [13] [fold]	Binder
8720 and 8640 and 8680	8400 and 8790 and 8620	8620 and 8990 and 9220	9090 and 8890 and 8630	8970 and 8380 and 8650	8490 and 8910 and 7150	8990 and 8460 and 8360	8470 and 8680 and 8450	8630 and 9280 and 9190	8780 and 8570 and 9020	8830 and 9370 and 9180	8620 and 8580 and 9020	–	ISQAVHAAHAEINEAGR [ovalbumin (OVA) peptide]
–	–	–	–	–	–	–	–	–	–	–	–	~2.8	SAPWEPLHWPEDWWQGTGEW [LAG3-11]
–	–	–	–	–	–	–	–	–	–	–	–	~2.2	HIQNWSYWLNQDMMNQQVWKS [LAG3-56]
